Target: human FPR2 (transcript variant 1; Origene) fused with mGFP (human) (UniProt P25090)
Experiment: cell-based or functional assay

- Inhibition (%) of forskolin-mediated cAMP production: 46%
Substance: LL37 peptide (from UniProt P49913 134-170)
